Consider eight molecules from patent publication US20240190962A1 (IMMUNOWAKE, published 2024).

Where a chain is given by its changes, count along the chain named. In names and notes the source's numbering stands. Where two headings read alike, the source gives them in different places.

Assay [1] has as its target T1, human IL-2 receptor (IL-2Rα, IL-2Rβ, IL-2Rγ) (human, UniProt P01589 22-272; P14784 27-551; P31785 23-369).
T1 sequence (looked up) 1: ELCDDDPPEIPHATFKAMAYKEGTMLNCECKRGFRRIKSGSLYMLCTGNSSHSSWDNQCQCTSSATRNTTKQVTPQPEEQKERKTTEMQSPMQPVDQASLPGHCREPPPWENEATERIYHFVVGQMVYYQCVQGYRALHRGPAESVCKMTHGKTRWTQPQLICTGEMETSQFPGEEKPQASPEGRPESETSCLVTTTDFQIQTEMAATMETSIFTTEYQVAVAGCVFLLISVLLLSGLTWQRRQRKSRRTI
T1 sequence (looked up) 2: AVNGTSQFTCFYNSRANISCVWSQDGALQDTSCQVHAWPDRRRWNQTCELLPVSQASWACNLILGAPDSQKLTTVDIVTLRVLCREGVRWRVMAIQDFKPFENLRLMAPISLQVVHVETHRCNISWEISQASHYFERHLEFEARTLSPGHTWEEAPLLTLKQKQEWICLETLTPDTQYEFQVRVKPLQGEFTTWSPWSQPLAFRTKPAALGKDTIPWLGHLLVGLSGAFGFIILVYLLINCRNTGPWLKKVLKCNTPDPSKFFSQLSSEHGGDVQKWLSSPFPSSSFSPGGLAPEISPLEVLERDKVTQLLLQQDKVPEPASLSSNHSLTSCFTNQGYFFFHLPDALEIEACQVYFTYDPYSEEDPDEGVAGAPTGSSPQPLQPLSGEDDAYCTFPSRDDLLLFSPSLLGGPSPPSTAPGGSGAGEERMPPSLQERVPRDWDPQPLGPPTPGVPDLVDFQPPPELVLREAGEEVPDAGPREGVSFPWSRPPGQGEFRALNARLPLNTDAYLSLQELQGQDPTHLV
T1 sequence (looked up) 3: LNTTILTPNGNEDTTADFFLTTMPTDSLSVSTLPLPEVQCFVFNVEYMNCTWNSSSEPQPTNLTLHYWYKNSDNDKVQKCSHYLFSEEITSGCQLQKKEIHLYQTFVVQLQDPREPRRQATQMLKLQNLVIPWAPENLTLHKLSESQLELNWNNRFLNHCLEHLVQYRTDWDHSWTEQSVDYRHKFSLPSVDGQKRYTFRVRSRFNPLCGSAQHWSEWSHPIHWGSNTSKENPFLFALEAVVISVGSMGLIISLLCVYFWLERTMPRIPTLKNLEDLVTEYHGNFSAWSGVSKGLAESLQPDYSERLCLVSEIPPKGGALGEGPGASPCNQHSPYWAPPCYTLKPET
Briefly: cell-based or functional assay.

Assay [2] concerns the target T2, CD8 on CD8+ T cells (UniProt P01732 22-235).
T2 construct: whole, on cells
The assay can be described thus: FACS. On the technique in general: A flow cytometer gives signals particle by particle.

Assay [3] concerns the target IL-23 receptor complex (IL-12Rβ1, IL-23R) (UniProt P42701 24-662; Q5VWK5 24-629, limits assumed). Briefly: cell-based or functional assay.
For assay [4], the target named is T1, human IL-2 receptor (IL-2Rα, IL-2Rβ, …). The assay can be described thus: cell-based or functional assay. The source holds these as a separate data set.

T2 sequence (P01732 22-235): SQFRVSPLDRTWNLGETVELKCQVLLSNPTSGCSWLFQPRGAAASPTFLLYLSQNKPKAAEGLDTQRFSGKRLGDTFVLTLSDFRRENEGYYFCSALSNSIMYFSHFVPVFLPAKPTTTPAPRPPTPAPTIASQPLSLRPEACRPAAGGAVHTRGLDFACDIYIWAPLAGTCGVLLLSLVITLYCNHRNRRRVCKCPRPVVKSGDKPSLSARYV
IL-23 receptor complex (IL-12Rβ1, IL-23R), sequence (Q5VWK5 24-629 limits assumed, chain 2 of 2, other chains not shown): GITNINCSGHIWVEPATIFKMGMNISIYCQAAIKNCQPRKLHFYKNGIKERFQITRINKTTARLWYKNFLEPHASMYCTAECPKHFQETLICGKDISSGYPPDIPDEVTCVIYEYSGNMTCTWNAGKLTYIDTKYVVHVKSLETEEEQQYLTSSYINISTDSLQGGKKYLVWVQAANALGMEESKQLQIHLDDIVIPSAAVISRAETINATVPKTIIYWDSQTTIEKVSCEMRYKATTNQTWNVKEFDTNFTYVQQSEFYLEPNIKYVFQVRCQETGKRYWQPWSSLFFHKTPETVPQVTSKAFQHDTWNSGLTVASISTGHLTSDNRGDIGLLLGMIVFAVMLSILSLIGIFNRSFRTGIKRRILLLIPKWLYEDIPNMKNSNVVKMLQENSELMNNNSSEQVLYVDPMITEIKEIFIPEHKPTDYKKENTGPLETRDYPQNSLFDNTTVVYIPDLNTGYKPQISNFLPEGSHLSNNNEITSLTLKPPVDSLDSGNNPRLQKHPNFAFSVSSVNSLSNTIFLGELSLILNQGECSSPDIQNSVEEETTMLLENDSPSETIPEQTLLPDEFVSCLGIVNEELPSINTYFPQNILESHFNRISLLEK

B1: anti-PD-1 antibody nivolumab (Opdivo) (antibody, human IgG4 S228P, kappa, V domains shown)
VH: QVQLVESGGGVVQPGRSLRLDCKASGITFSNSGMHWVRQAPGKGLEWVAVIWYDGSKRYYADSVKGRFTISRDNSKNTLFLQMNSLRAEDTAVYYCATNDDYWGQGTLVTVSS
VL: EIVLTQSPATLSLSPGERATLSCRASQSVSSYLAWYQQKPGQAPRLLIYDASNRATGIPARFSGSGSGTDFTLTISSLEPEDFAVYYCQQSSNWPRTFGQGTKVEIKR
Turning to B1, in assay [1], the “Percent IL-2 signal transduction (HEK-IL-2 reporter assay)” value amounted to 0% and the “Percent IL-2 signal transduction (HEK-PD-1-IL-2 reporter assay)” value was found to be 0%.

B2: Fab-IL-23(WT)-Fc-CD4 Ab (other)
light: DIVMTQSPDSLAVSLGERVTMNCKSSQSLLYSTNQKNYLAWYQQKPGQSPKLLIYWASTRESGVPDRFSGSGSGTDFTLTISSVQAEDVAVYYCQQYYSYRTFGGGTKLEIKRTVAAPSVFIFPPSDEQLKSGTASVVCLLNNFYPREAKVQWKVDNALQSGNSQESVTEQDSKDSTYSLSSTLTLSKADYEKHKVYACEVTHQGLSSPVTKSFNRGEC
heavy 1: QVQLQQSGPEVVKPGASVKMSCKASGYTFTSYVIHWVRQKPGQGLDWIGYINPYNDGTDYDEKFKGKATLTSDTSTSTAYMELSSLRSEDTAVYYCAREKDNYATGAWFAYWGQGTLVTVSSASTKGPSVFPLAPSSKSTSGGTAALGCLVKDYFPEPVTVSWNSGALTSGVHTFPAVLQSSGLYSLSSVVTVPSSSLGTQTYICNVNHKPSNTKVDKKVEPKSCDKTHTCPPCPAPEKKGGPSVFLFPPKPKDTLMISRTPEVTCVVVDVSHEDPEVKFNWYVDGVEVHNAKTKPREEQYNSTYRVVSVLTVLHQDWLNGKEYKCKVSNKALPAPIEKTISKAKGQPREPQVYVLPPSREEMTKNQVSLLCLVKGFYPSDIAVEWESNGQPENRYMTWPPVLDSDGSFFLYSKLTVDKSRWQQGNVFSCSVMHEALHNHYTQKSLSLSPGK
heavy 2: QVQLQQSGPEVVKPGASVKMSCKASGYTFTSYVIHWVRQKPGQGLDWIGYINPYNDGTDYDEKFKGKATLTSDTSTSTAYMELSSLRSEDTAVYYCAREKDNYATGAWFAYWGQGTLVTVSSASTKGPSVFPLAPSSKSTSGGTAALGCLVKDYFPEPVTVSWNSGALTSGVHTFPAVLQSSGLYSLSSVVTVPSSSLGTQTYICNVNHKPSNTKVDKKVEPKSCDKPGSGIWELKKDVYVVELDWYPDAPGEMVVLTCDTPEEDGITWTLDQSSEVLGSGKTLTIQVKEFGDAGQYTCHKGGEVLSHSLLLLHKKEDGIWSTDILKDQKEPKNKTFLRCEAKNYSGRFTCWWLTTISTDLTFSVKSSRGSSDPQGVTCGAATLSAERVRGDNKEYEYSVECQEDSACPAAEESLPIEVMVDAVHKLKYENYTSSFFIRDIIKPDPPKNLQLKPLKNSRQVEVSWEYPDTWSTPHSYFSLTFCVQVQGKSKREKKDRVFTDKTSATVICRKNASISVRAQDRYYSSSWSEWASVPCSGGGGSGGGGSGGGGSGGGGSGRAVPGGSSPAWTQCQQLSQKLCTLAWSAHPLVGHMDLREEGDEETTNDVPHIQCGDGCDPQGLRDNSQFCLQRIHQGLIFYEKLLGSDIFTGEPSLLPDSPVGQLHASLLGLSQLLQPEGHHWETQQIPSLSPSQPWQRLLLRFKILRSLQAFVAVAARVFAHGAATLSPDKTHTCPPCPAPEDEGGPSVFLFPPKPKDTLMISRTPEVTCVVVDVSHEDPEVKFNWYVDGVEVHNAKTKPREEQYNSTYRVVSVLTVLHQDWLNGKEYKCKVSNKALPAPIEKTISKAKGQPREPQVYVYPPSREEMTKNQVSLTCLVKGFYPSDIAVEWESNGQPENNYKTTPPVLDEDGSFALVSKLTVDKSRWQQGNVFSCSVMHEALHNHYTQKSLSLSPGK
notes: copies: 2 + 1 + 1
Take B2: in assay [2], the binding result is recorded as “no binding”. For the same molecule, in assay [3], the “IL-23 biological activity (IFN-γ release), CD4+ T cells” value stood at 34% and the “IL-23 biological activity (IFN-γ release), CD8+ T cells” value stood at 21%.

B3: Fab-IL-23(E59A/F60A)-Fc-CD4 Ab (other)
light: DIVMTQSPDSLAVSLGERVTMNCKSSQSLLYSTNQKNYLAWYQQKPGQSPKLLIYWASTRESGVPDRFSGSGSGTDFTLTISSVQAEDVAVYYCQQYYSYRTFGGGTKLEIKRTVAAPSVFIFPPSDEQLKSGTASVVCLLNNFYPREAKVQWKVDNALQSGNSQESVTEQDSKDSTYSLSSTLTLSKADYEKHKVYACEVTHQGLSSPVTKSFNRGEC
heavy 1: B2 heavy 1
heavy 2: B2 heavy 2 with E290A, F291A
B3: in assay [2], the binding result is on record as “no binding”. Also, in assay [3], the “IL-23 biological activity (IFN-γ release), CD4+ T cells” value was 6.8% and the “IL-23 biological activity (IFN-γ release), CD8+ T cells” value came out at 0%.

B4: Fab-IL-23(E59A)-Fc-CD4 Ab (other)
light: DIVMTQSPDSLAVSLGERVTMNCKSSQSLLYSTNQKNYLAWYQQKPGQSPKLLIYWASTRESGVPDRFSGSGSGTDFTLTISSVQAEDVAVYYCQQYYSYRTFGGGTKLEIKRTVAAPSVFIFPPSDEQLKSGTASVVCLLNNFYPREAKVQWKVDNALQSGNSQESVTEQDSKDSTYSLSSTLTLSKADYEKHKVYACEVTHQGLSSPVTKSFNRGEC
heavy 1: B2 heavy 1
heavy 2: B2 heavy 2 with E290A
notes: copies: 2 + 1 + 1
As to B4, the binding result in assay [2] is given as “no binding”. In assay [3], the “IL-23 biological activity (IFN-γ release), CD4+ T cells” value amounted to 24% and the “IL-23 biological activity (IFN-γ release), CD8+ T cells” value was determined as 2%.

B5: Fab-IL-23(F60A)-Fc-CD4 Ab (other)
light: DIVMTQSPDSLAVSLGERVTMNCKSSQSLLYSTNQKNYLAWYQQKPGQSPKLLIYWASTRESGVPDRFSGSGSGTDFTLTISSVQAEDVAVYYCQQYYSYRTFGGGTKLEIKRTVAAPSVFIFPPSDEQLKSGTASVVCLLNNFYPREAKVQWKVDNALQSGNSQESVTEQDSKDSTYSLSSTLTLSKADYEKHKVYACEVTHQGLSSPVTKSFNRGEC
heavy 1: B2 heavy 1
heavy 2: B2 heavy 2 with F291A
notes: copies: 2 + 1 + 1
Consider B5, for which the binding result in assay [2] is “no binding”. In assay [3], the “IL-23 biological activity (IFN-γ release), CD4+ T cells” value was 29% and the “IL-23 biological activity (IFN-γ release), CD8+ T cells” value stood at 1.5%.

B6: IL-2 mutant-Fc-CD3 Ab (other, not shown: a dimerising Fc or GST)
light: EIVMTQSPGTLSLSPGESATLSCSASLSVSFMHWFQQKPGHAPRLLIYRTSNLASGVPDRFSGSGSGTDFTLTISRLEPEDFAVYYCQQRSSDPPTFGQGTRLEIKRTVAAPSVFIFPPSDEQLKSGTASVVCLLNNFYPREAKVQWKVDNALQSGNSQESVTEQDSKDSTYSLSSTLTLSKADYEKHKVYACEVTHQGLSSPVTKSFNRGEC
heavy: EVQLVESGGGLVQPGRSLRLSCTASGFTFSYFWMNWVRQAPGKGLEWVGEIRLRSDNYATHYAESVKGRFTISRDDSKSIAYLQMNSLKTEDTALYYCTRDWEFTYWGQGTTVTVSSAS
chain: APTSSSTKKTQLQLEHLLLDLQMILNGINNYKNPKLTDMLTFEFYMPKKATELKHLQCLERELKPLEEVLNLAQSKNFHLRPRDLISNINVIVLELKGSETTFMCEYADETATIVEFLNRWITFCQSIISTLT
As to B6, in assay [4], the “Percent IL-2 signal transduction (HEK-IL-2 reporter assay)” value was 11% and the “Percent T-cell proliferation (PBMC proliferation assay)” value (from here on “Percent T-cell proliferation”) worked out at 39%.

B7: Fab-IL-2 mutant-Fc-CD3 Ab (other)
light: B6 light
heavy 1: EVQLVESGGGLVQPGRSLRLSCTASGFTFSYFWMNWVRQAPGKGLEWVGEIRLRSDNYATHYAESVKGRFTISRDDSKSIAYLQMNSLKTEDTALYYCTRDWEFTYWGQGTTVTVSSASTKGPSVFPLAPSSKSTSGGTAALGCLVKDYFPEPVTVSWNSGALTSGVHTFPAVLQSSGLYSLSSVVTVPSSSLGTQTYICNVNHKPSNTKVDKKVEPKSCDKTHTCPPCPAPEKKGGPSVFLFPPKPKDTLMISRTPEVTCVVVDVSHEDPEVKFNWYVDGVEVHNAKTKPREEQYNSTYRVVSVLTVLHQDWLNGKEYKCKVSNKALPAPIEKTISKAKGQPREPQVYVLPPSREEMTKNQVSLLCLVKGFYPSDIAVEWESNGQPENRYMTWPPVLDSDGSFFLYSKLTVDKSRWQQGNVFSCSVMHEALHNHYTQKSLSLSPGK
heavy 2: EVQLVESGGGLVQPGRSLRLSCTASGFTFSYFWMNWVRQAPGKGLEWVGEIRLRSDNYATHYAESVKGRFTISRDDSKSIAYLQMNSLKTEDTALYYCTRDWEFTYWGQGTTVTVSSASTKGPSVFPLAPSSKSTSGGTAALGCLVKDYFPEPVTVSWNSGALTSGVHTFPAVLQSSGLYSLSSVVTVPSSSLGTQTYICNVNHKPSNTKVDKKVEPKSCDKPAPTSSSTKKTQLQLEHLLLDLQMILNGINNYKNPKLTDMLTFEFYMPKKATELKHLQCLERELKPLEEVLNLAQSKNFHLRPRDLISNINVIVLELKGSETTFMCEYADETATIVEFLNRWITFCQSIISTLTDKTHTCPPCPAPEDEGGPSVFLFPPKPKDTLMISRTPEVTCVVVDVSHEDPEVKFNWYVDGVEVHNAKTKPREEQYNSTYRVVSVLTVLHQDWLNGKEYKCKVSNKALPAPIEKTISKAKGQPREPQVYVYPPSREEMTKNQVSLTCLVKGFYPSDIAVEWESNGQPENNYKTTPPVLDEDGSFALVSKLTVDKSRWQQGNVFSCSVMHEALHNHYTQKSLSLSPGK
Turning to B7, in assay [4], the “Percent IL-2 signal transduction (HEK-IL-2 reporter assay)” value amounted to 2.5% and the “Percent T-cell proliferation” value was determined as 45%.

B8: anti-CD3 antibody (made in-house) (antibody, V domains shown)
VH: EVQLVESGGGLVQPGRSLRLSCTASGFTFSYFWMNWVRQAPGKGLEWVGEIRLRSDNYATHYAESVKGRFTISRDDSKSIAYLQMNSLKTEDTALYYCTRDWEFTYWGQGTTVTVSS
VL: EIVMTQSPGTLSLSPGESATLSCSASLSVSFMHWFQQKPGHAPRLLIYRTSNLASGVPDRFSGSGSGTDFTLTISRLEPEDFAVYYCQQRSSDPPTFGQGTRLEIKR
As for B8, in assay [4], the “Percent IL-2 signal transduction (HEK-IL-2 reporter assay)” value is 0% and the “Percent T-cell proliferation” value is 0%.
